For test [1], the target named is T1, Mouse IL-18BP (amino acids 31-194), biotinylated (mouse, UniProt Q9Z0M9 29-193, biotin on the AviTag (BirA ligase)).
T1 construct: also called mIL-18BP
T1 sequence: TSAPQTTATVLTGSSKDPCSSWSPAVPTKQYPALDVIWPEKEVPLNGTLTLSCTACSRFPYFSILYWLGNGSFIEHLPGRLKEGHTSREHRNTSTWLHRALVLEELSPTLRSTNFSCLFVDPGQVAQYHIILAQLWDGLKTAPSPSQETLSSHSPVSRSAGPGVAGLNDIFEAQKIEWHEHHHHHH
The test is described as follows: SPR; KD(IL-18BP)/KD(IL-18Rα) normalized to WT IL-18.

Test [2] addresses T1, Mouse IL-18BP (amino acids 31-194), …. Kind of test: SPR, immobilized biotinylated mIL-18BP, representative sensorgram FIG. 11B; representative sensorgram, FIG. 11B. As for the experimental part: By contrast, very little binding is observed with the same variants and mIL-18BP (right). FIG. 11B provides measurement of IL-18BP binding using representative surface plasmon resonance sensor grams between immobilized biotinylated mIL-18BP and the murine DR-IL-18 variants.
(§1) Experiments were conducted using a Biacore T100 and carried out at 25° C. Biotinylated IL-18Rα or IL-18BP were immobilized onto a Biacore biotin capture chip (Series S CAP sensor chip, GE Healthcare) to yield an Rmax of ˜50 RU (IL-18Rα) or ˜10 RU (IL-18BP). Measurements were made with serial dilutions of the IL-18 variants in HEPES buffered Saline-P+buffer (10 mM HEPES pH 7.4, 150 mM NaCl, 0.005% surfactant P20). The surface was regenerated by three 60-sec injections of regeneration buffer (3/4 (v/v) 8M guanidine hydrochloride with 1/4 (v/v) 1M sodium hydroxide). Experiments were performed in multiple channels simultaneously for increased observations. All data were analyzed with the Biacore T100 evaluation software version 2.0 with a 1:1 Langmuir binding model.

In test [3] the target is T2, Mouse IL-18Rα ectodomain (amino acids 19-329), biotinylated (mouse, UniProt Q61098 19-329, biotin on the AviTag (BirA ligase)).
T2 construct: range 19-329; Secreted from Expi293 cells (H7 signal peptide removed); also called mIL-18Rα; mIL18Ra
T2 sequence: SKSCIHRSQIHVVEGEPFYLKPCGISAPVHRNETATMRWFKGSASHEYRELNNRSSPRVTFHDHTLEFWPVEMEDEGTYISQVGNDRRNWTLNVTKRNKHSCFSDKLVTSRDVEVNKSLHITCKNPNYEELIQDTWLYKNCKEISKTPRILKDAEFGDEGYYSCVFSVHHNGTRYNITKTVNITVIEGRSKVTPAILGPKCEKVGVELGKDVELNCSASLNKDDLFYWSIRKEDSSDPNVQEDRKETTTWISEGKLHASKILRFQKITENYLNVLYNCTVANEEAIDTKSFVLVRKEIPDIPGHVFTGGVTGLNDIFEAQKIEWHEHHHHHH
The test is described as follows: on-yeast binding isotherm (flow cytometry). The essentials: (§2)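 Yeast displaying IL-18 variants were grown at 30 °C, then induced 1 day at 20 °C, with display checked by anti-myc-PE. Cells were stained on ice with biotinylated IL-18Rα (± IL-18Rβ) or biotinylated IL-18BP in PBS/0.5% BSA/2 mM EDTA. Binding was read by flow cytometry.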

Test [4] has as its target T1, Mouse IL-18BP (amino acids 31-194), …. Kind of test: on-yeast binding isotherm (flow cytometry). In a few lines:
as §2

Test [5] shares this target. Kind of test: SPR; KD for IL-18BP over KD for IL-18Rα. As for the experimental part: as §1
Test [6] concerns the target T2, Mouse IL-18Rα ectodomain (amino acids …). Kind of test: SPR (Biacore T100), receptor captured via biotin, IL-18 as analyte. The essentials:
(§3)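 Biotinylated IL-18Rα or IL-18BP captured on a biotin CAP chip (Rmax ~50 RU or ~10 RU respectively), with serial dilutions of IL-18 variants as analyte. Run at 25° C in HBS-P+ (10 mM HEPES pH 7.4, 150 mM NaCl, 0.005% P20); guanidine/NaOH regeneration. KD from 1:1 Langmuir fit.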

Test [7] addresses T1, Mouse IL-18BP (amino acids 31-194), …. The test is described as follows: on-yeast binding isotherms; KD for IL-18BP over KD for IL-18Rα. On the procedure:
(§4) Individual colonies of IL-18 yeast were grown overnight at 30° C. in SDCAA liquid media and induced in SGCAA liquid media for 1 day at 20° C. IL-18 display levels on yeast were verified by flow cytometry using an anti-cMyc tag antibody (anti-myc-PE; Cell Signaling Technologies). Receptor staining with biotinylated IL-18Rα (with or without IL-18R β) or biotinylated IL-18BP was performed in PBS supplemented with 0.5% BSA and 2 mM EDTA (PBE) on ice. All analysis was performed on a Sony SA3800 flow cytometer.

Test [8] shares this target. Kind of test: on-yeast binding isotherms; KD ratio relative to WT IL-18. On the procedure:
as §4

Test [9] has the same target. The test is described as follows: on-yeast binding isotherm (flow cytometry): yeast-displayed murine IL-18 variant titrated with mIL-18BP, % max. As for the experimental part:
as §4

For test [10] the target is unchanged. Kind of test: SPR (Biacore T100), IL-18BP captured via biotin, IL-18 as analyte. As for the experimental part: as §1
Test [11] shares this target. The test is described as follows: SPR; KD ratio relative to WT IL-18. On the procedure: as §1
Test [12] deals with T2, Mouse IL-18Rα ectodomain (amino acids …). Kind of test: SPR.
The target of test [13] is T1, Mouse IL-18BP (amino acids 31-194), …. The test is described as follows: SPR.
Test [14] shares this target. Kind of test: SPR; KD ratio relative to WT IL-18; SPR; ratio normalized to WT. In a few lines:
as §3

The target is the same in test [15]. The test is described as follows: on-yeast binding isotherms; KD ratio relative to WT IL-18; on-yeast isotherm; normalized ratio from 10 µM put in for NBD. As for the experimental part: as §4
The target is the same in test [16]. Kind of test: SPR (Biacore T100), IL-18BP captured via biotin, IL-18 as analyte; SPR; weak binding, 3.8 µM. As for the experimental part:
as §1

For test [17] the target is unchanged. The test is described as follows: SPR; KD for IL-18BP over KD for IL-18Rα; SPR; ratio of measured KDs. On the procedure: as §1
Test [18] has the same target. The test is described as follows: on-yeast binding isotherms; 10 µM used for NBD; on-yeast isotherm; ratio is a bound reckoned from 10 µM put in for NBD. On the procedure:
as §4

For test [19] the target is unchanged. Kind of test: yeast binding isotherms and SPR; members per FIG. 11A legend.
For test [20] the target is unchanged. The test is described as follows: SPR (Biacore T100), IL-18BP captured via biotin, IL-18 as analyte; SPR; very weak binding, about 15 µM. On the procedure: as §1
Test [21] has the same target. The test is described as follows: SPR; 30 µM used for NBD; SPR; ratio is a bound reckoned from 30 µM put in for NBD. As for the experimental part:
as §1

Test [22] has the same target. The test is described as follows: SPR; KD ratio relative to WT IL-18; SPR; normalized ratio from 30 µM put in for NBD. On the procedure: as §1

B1: Mouse Interleukin-18 (mature form), wild type (ligand)
chain: NFGRLHCTTAVIRNINDQVLFVDKRQPVFEDMTDIDQSASEPQTRLIIYMYKDSEVRGLAVTLSVKDSKMSTLSCKNKIISFEEMDPPENIDDIQSDLIFFQKRVPGHNKMEFESSLYEGHFLACQKEDDAFKLILKKKDENGDKSVMFTLTNLHQS
notes: also called mIL-18 WT; WT mIL-18
For B1, the “IL-18 BP:Rα Dissociation Constant Ratio” value in test [1] is 1. Further, the equilibrium dissociation constant (Kd) worked out at 0.0008 nM in test [2]; 11.3 nM in test [3]; 2.13 nM in [4]; 0.6 nM in test [6]; 0.0011 nM in test [10]; 0.6 nM in test [12]. Also, the Kd in test [13] stood at 0.0011 nM. Further, the figures for the “KD ratio IL-18BP/IL-18Rα” value in test [5] and in test [7] were 0.00183 and 0.188, respectively. In addition, the “Dissociation Constant Ratio normalized to WT IL-18” value in test [8] and in test [11] was 1 each time. Moreover, the “EC50 (read off the curve)” value in [9] was ~20 nM.

B2: SEQ ID NO: 60 (murine DR-IL-18 variant mCS1) (ligand)
chain: NFGRLHCTTAVIRNINDQVLFVDKRQPVFEDMTDIDQSASEPQTRLIIYGYADSRVRGKAVTLSVKDSKMSTLSCKNKIISFEEMDPPENIDDIQSDLIFFQKRVPGHNKMEFESSLYEGHFLACQKEDDAFKLILKKKDENGDKSVMFTLTNLHQS
notes: Engineered variant
With B2, the “Dissociation Constant Ratio normalized to WT IL-18” value in [14] was 3.84e+06; in [15], > 4960. For the same molecule, the dissociation constant Kd was 10.7 nM in test [3], 0.54 nM in test [6], 3800 nM in test [16] and > 1000 nM in test [19]. The “KD ratio IL-18BP/IL-18Rα” value in test [17] is 7040; in [18] it was > 935.

B3: SEQ ID NO: 67 (murine DR-IL-18 variant mB1) (ligand)
chain: HFGRLHCTTAVIRNINDQVLFVDKRQPVFEDMTDIDQSASEPQTRLIIYGYADSDARAKAVTLSVKDSKMSTLSCKNKIISFEEMDPPENIDDIQSDLIFFQKSVPGHNKMEFESSLYEGHFLACQKEDDAFKLILKKKDENGDKSVMFTVTNLHQS
notes: Engineered variant
As to B3, the figures for the “Dissociation Constant Ratio normalized to WT IL-18” value in test [14] and in test [15] were 1.15e+07 and > 2960, respectively. Further, the Kd in test [3] was 17.9 nM; in [6], 0.7 nM; in test [19] it was > 1000 nM; in test [20], 14700 nM. Further, the “KD ratio IL-18BP/IL-18Rα” value is 21000 in test [17] and > 559 in test [18].

B4: SEQ ID NO: 64 (murine DR-IL-18 variant mE8) (ligand)
chain: NFGRLHCTTAVIRNINDQVLFVDKRQPVFEDMTDIDQSASEPQTRLIIYVYTDGRRRGKAVTLSVKDSKMSTLSCKNKIISFEEMDPPENIDDIQSDLIFFQKKVPGHDKMEFESSLYEGHFLACQKEDDAFKLILKKKDENGDKSVMFTLTNLHQS
notes: Engineered variant
Turning to B4, the results for the Kd in [3] and in [6] were 42 nM and 1.69 nM, respectively. Moreover, the “KD ratio IL-18BP/IL-18Rα” value in [21] was > 17800; in [18] it was > 238. The “Dissociation Constant Ratio normalized to WT IL-18” value in test [15] is > 1260; in test [22] it was > 9.68e+06.
